Test results as given in publication doi:10.1101/317909.

Biological target: T1, ZC3H12B PIN-ZnF fragment (human, UniProt Q5HYM0 179-397)
T1 sequence: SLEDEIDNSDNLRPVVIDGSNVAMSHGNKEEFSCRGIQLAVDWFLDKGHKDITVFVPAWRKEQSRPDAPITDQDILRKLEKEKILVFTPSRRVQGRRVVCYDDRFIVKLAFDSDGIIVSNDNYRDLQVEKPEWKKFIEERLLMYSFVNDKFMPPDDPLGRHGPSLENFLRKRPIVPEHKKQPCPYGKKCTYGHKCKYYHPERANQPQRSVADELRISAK
Experiment: X-ray crystallography

AAUGCGACAGUCGGUAGCAUC (ssRNA, phosphorothioate bond between nt 1 and 2 (5' end)) [21-nt HTR-SELEX-enriched RNA]
binding result: binds
